Test results: paper PMC10729762, “CsrA selectively modulates sRNA-mRNA regulator outcomes”

B1: FnrS (structured_RNA)
RNA: GCAGGUGAAUGCAACGUCAAGCGAUGGGCGUUGCGCUCCAUAUUGUCUUACUUCCUUUUUUGAAUUACUGCAUAGCACAAUUGAUUCGUACGACGCCGACUUUGAUGAGUCGGCUUUUUUUU
B2: ChiX (structured_RNA)
RNA: ACACCGUCGCUUAAAGUGACGGCAUAAUAAUAAAAAAAUGAAAUUCCUCUUUGACGGGCCAAUAGCGAUAUUGGCCAUUUUUUU
B3: McaS (structured_RNA)
RNA: ACCGGCGCAGAGGAGACAAUGCCGGAUUUAAGACGCGGAUGCACUGCUGUGUGUACUGUAGAGUCUGGCGGAUGUCGACAGACUCUAUUUUUU

Biological target: CsrA;Hfq (Escherichia coli K-12 …, UniProt P69913;P0A6X3 1-61;1-102, |)
Sequence (P69913 whole entry, chain 1 of 2): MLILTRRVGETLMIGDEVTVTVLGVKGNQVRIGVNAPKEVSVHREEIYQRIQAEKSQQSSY
Sequence (P0A6X3 whole entry, chain 2 of 2): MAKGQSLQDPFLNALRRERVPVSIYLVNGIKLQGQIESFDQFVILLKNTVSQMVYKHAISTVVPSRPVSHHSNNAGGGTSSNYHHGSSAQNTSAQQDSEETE
Test: EMSA; 6 uM CsrA + Hfq, likely ternary complex; 10 nM denatured RNA, 0-6 uM CsrA, 0-3 uM Hfq; 1X binding buffer (10 mM Tris-HCl pH 7.5, 10 mM MgCl2, 100 mM KCl) plus CsrA dilution buffer, 11% glycerol, 20 mM
Conditions: protein: recombinant;recombinant; tags: ;; chain copies: 2;6; label: internal 32P-UTP

| Binder | binding result |
| --- | --- |
| B1 | binds |
| B2 | binds |
| B3 | binds |
